This is an account of results in PMC11035697, “Phosphorylation of the F-BAR protein Hof1 drives septin ring splitting in budding yeast” (Nature Communications, 2024).

Data set [1] deals with the molecule itself. Nature of the data set: negative-stain transmission electron microscopy; septin octamers diluted in low salt buffer (20 mM Tris-Cl pH 8, 30 mM NaCl, 2 mM MgCl2, 40 µM GTP), polymerised at least 30 min at 4 °C, 180 nM final; 1% uranyl acetate; octamers to filaments.
Data set [2] concerns the target T1, eGFP-tagged Cdc11-capped septin octamer (S. cerevisiae, UniProt P32458 1-415; P32468 1-407; P32457 1-520; P25342 1-322).
T1 construct: septin Cdc11, yeast; septin Cdc12, yeast; septin Cdc3, yeast; septin Cdc10, yeast; Always used as a 1:1 mix with the untagged octamer in the fluorescence experiments; also called eGFP-labelled septin octamers; GFP-tagged septin octamers; source: E. coli BL21 (DE3) Rosetta, co-expressed from pFM453 and pFM873, purified (amylose, thrombin cleavage of MBP, Ni-NTA); not shown: MBP, N-terminal, …
Kind of data set: fluorescence microscopy of purified proteins (colocalisation on septin bundles); 1:1 mix of eGFP-tagged and untagged septin octamers (50 nM) on PI(4,5)P2-containing supported lipid bilayers in 20 mM Tris-Cl pH 8, 30 mM NaCl, 2 mM MgCl2, GTP; Hof1-BFP mixed 1:4 with untagged Hof1 added; spinning disk microscopy. The note with it: both partners purified.

B1: Cdc11-Cdc12-Cdc3-Cdc10-Cdc10-Cdc3-Cdc12-Cdc11 septin octamer (complex, S. cerevisiae)
chain 1: MSGIIDASSALRKRKHLKRGITFTVMIVGQSGSGRSTFINTLCGQQVVDTSTTILLPTDTSTEIDLQLREETVELEDDEGVKIQLNIIDTPGFGDSLDNSPSFEIISDYIRHQYDEILLEESRVRRNPRFKDGRVHCCLYLINPTGHGLKEIDVEFIRQLGSLVNIIPVISKSDSLTRDELKLNKKLIMEDIDRWNLPIYNFPFDEDEISDEDYETNMYLRTLLPFAIIGSNEVYEMGGDVGTIRGRKYPWGILDVEDSSISDFVILRNALLISHLHDLKNYTHEILYERYRTEALSGESVAAESIRPNLTKLNGSSSSSTTTRRNTNPFKQSNNINNDVLNPASDMHGQSTGENNETYMTREEQIRLEEERLKAFEERVQQELLLKRQELLQREKELREIEARLEKEAKIKQEE
chain 2: MSAATATAAPVPPPVGISNLPNQRYKIVNEEGGTFTVMLCGESGLGKTTFINTLFQTVLKRADGQQHRQEPIRKTVEIDITRALLEEKHFELRVNVIDTPGFGDNVNNNKAWQPLVDFIDDQHDSYMRQEQQPYRTKKFDLRVHAVLYFIRPTGHGLKPIDIETMKRLSTRANLIPVIAKADTLTAQELQQFKSRIRQVIEAQEIRIFTPPLDADSKEDAKSGSNPDSAAVEHARQLIEAMPFAIVGSEKKFDNGQGTQVVARKYPWGLVEIENDSHCDFRKLRALLLRTYLLDLISTTQEMHYETYRRLRLEGHENTGEGNEDFTLPAIAPARKLSHNPRYKEEENALKKYFTDQVKAEEQRFRQWEQNIVNERIRLNGDLEEIQGKVKKLEEQVKSLQVKKSHLK
chain 3: MSLKEEQVSIKQDPEQEERQHDQFNDVQIKQESQDHDGVDSQYTNGTQNDDSERFEAAESDVKVEPGLGMGITSSQSEKGQVLPDQPEIKFIRRQINGYVGFANLPKQWHRRSIKNGFSFNLLCVGPDGIGKTTLMKTLFNNDDIEANLVKDYEEELANDQEEEEGQGEGHENQSQEQRHKVKIKSYESVIEENGVKLNLNVIDTEGFGDFLNNDQKSWDPIIKEIDSRFDQYLDAENKINRHSINDKRIHACLYFIEPTGHYLKPLDLKFMQSVYEKCNLIPVIAKSDILTDEEILSFKKTIMNQLIQSNIELFKPPIYSNDDAENSHLSERLFSSLPYAVIGSNDIVENYSGNQVRGRSYPWGVIEVDNDNHSDFNLLKNLLIKQFMEELKERTSKILYENYRSSKLAKLGIKQDNSVFKEFDPISKQQEEKTLHEAKLAKLEIEMKTVFQQKVSEKEKKLQKSETELFARHKEMKEKLTKQLKALEDKKKQLELSINSASPNVNHSPVPTKKKGFLR
chain 4: MDPLSSVQPASYVGFDTITNQIEHRLLKKGFQFNIMVVGQSGLGKSTLINTLFASHLIDSATGDDISALPVTKTTEMKISTHTLVEDRVRLNINVIDTPGFGDFIDNSKAWEPIVKYIKEQHSQYLRKELTAQRERFITDTRVHAILYFLQPNGKELSRLDVEALKRLTEIANVIPVIGKSDTLTLDERTEFRELIQNEFEKYNFKIYPYDSEELTDEELELNRSVRSIIPFAVVGSENEIEINGETFRGRKTRWSAINVEDINQCDFVYLREFLIRTHLQDLIETTSYIHYEGFRARQLIALKENANSRSSAHMSSNAIQR
notes: septin Cdc11, yeast; septin Cdc12, yeast; septin Cdc3, yeast; septin Cdc10, yeast; also called Cdc11-capped septin octamers; recombinant septin octamers; source: E. coli BL21 (DE3) Rosetta, co-expressed from pFM453 and pFM455, purified (amylose, thrombin cleavage of MBP, Ni-NTA); not shown: MBP, N-terminal, cleaved; His6, N-terminal, kept; copies: 2 + 2 + 2 + 2
Consider B1, for which the binding result in data set [1] is on record as “binds”.

B2: MBP-Hof1-BFP-6His (natural protein, S. cerevisiae, UniProt Q05080 1-669, looked up)
chain: MSYSYEACFWDPNDNGVNILLGHISQGIRSCDSMILFFKQRSELEKDYARRLGAITGKLDKDIGTNMDYGKLNETFNVVLSVEKARAQSHSKQSEILFRQIYTDTKAFAANLQARYTTLSGKIERLRMDKFNKKKGCEVLQKKLQDAQIRFRDLQLNENNMIGAKRVEHNKRELLKWESNSQEYKVQLDVLKQEYKASQKFWIHEWAQLSCELQEMENARISFLQSKLQQFATSSMETYILEQTKMDMLTNHLNSFTAADEISTFSKENGTGRLKHKTSKGDMNSSANWAQMSSISTTSKKTESYMDNIRKLSSQLKETENKRKLASIDKYEKPLPSPEVTMATQFRNSTPVIRNETKVVANPTLSLRSSPVQLQSNVDDSVLRQKPDKPRPIVGEEQLKPDEDSKNPDEKGLMVHKRNQSLSSPSESSSSNPTDFSHIKKRQSMESMTTSVSSMANSIDDSQRFAKSWNSSNRKRKSMSHLQVPSSASSRSDDGGRTPNSAHNLNEDDYNTRRDTSTSTILFKPPVAVRGTSRGHTHRQSMIMQDSSNPIEDALYEMERIQSSSKPGTKTGNIMDERGVVRDRGITVTLPIVTSEGFPVIEYAKAMYPLIGNEAPGLANFHKGDYLLITEIVNKDWYKGEVYDNDRIDRNHRIGLIPYNFIQLLHQGL
notes: F-BAR protein Hof1, S. cerevisiae, residues 1-669 (mTagBFP fragment cloned into pBG2163); BFP amplified from pHPOM1-mTagBFP2; also called Hof1 tagged with blue fluorescent protein; pSP1950; source: E. coli BL21 (DE3) Rosetta, purified (Ni-NTA, amylose); not shown: MBP, N-terminal, kept; mTagBFP, C-terminal, kept
As to B2, the binding result in data set [2] was “binds”.
